Reference: US20190085081A1 (CANCER RESEARCH TECHNOLOGY, published 2019)
Where a chain is given by its changes, count along the chain named.

T1: MMRN2 overexpressed in HEK293T cells (human, UniProt Q9H8L6 23-949)
T1 construct: Used as cell lysate; also called full-length human MMRN2 with a His tag; hMMRN2; not shown: His tag (vector pHL-Avitag3)
T1 sequence: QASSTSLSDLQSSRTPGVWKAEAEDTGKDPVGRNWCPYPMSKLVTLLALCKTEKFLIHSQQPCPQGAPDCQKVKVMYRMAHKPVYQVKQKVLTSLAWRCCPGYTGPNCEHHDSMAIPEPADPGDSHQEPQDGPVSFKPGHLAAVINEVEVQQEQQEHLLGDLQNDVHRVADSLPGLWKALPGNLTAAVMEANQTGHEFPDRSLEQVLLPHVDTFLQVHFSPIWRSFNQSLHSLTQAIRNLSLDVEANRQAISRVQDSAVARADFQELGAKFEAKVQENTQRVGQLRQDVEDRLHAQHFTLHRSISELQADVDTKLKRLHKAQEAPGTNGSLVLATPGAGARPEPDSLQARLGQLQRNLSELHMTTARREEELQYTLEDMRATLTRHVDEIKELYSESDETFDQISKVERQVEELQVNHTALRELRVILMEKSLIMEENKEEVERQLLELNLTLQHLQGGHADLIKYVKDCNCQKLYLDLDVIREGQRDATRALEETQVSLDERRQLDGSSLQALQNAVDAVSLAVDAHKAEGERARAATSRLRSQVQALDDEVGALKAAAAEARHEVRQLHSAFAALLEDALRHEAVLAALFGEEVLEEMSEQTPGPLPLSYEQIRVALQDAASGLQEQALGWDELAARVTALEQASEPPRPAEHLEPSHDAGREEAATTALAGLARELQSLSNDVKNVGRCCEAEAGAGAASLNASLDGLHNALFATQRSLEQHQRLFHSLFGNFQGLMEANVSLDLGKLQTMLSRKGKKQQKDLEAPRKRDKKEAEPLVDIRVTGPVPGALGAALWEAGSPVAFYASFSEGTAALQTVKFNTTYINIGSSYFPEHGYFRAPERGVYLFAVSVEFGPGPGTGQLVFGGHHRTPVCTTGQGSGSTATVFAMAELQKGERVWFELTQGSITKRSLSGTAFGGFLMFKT

T2: murine CLEC14A-Fc (mouse, UniProt Q8VCP9 22-386, limits assumed)
T2 construct: Murine CLEC14A protein with a human Fc tag, made in HEK293T cells; also called CM; mCLEC14A-Fc; not shown: human Fc tag
T2 sequence (looked up): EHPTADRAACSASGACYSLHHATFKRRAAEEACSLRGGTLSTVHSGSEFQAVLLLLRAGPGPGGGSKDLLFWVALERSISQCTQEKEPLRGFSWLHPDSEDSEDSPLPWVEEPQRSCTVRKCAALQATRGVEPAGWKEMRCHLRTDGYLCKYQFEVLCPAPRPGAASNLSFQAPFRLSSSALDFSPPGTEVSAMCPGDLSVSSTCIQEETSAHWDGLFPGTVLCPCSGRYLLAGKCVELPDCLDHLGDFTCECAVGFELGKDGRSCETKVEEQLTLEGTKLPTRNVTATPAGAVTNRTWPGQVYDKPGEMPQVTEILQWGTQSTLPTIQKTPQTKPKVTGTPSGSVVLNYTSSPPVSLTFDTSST

T3: human CLEC14A-ECD-Fc (human, UniProt Q86T13 22-396)
T3 construct: also called CLEC14A-Fc; hCLEC14A-Fc; not shown: human Fc tag from the pcDNA3-Fc plasmid
T3 sequence: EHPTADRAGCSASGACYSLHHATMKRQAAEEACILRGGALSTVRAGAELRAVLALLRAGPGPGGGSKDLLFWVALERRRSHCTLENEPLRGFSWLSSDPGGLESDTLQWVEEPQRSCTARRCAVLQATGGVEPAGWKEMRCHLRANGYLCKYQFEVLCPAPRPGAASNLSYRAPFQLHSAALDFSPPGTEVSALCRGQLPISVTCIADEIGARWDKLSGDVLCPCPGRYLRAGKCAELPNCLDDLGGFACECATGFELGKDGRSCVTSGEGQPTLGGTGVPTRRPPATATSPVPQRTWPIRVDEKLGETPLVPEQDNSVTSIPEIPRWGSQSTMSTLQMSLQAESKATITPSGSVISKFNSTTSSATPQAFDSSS

T4: CLEC14A wild type with a C terminal GFP tag (human, UniProt Q86T13 22-490)
T4 construct: Expressed in HEK293T cells; GFP-positive cells gated; also called WT CLEC14A; not shown: C-terminal GFP tag
T4 sequence: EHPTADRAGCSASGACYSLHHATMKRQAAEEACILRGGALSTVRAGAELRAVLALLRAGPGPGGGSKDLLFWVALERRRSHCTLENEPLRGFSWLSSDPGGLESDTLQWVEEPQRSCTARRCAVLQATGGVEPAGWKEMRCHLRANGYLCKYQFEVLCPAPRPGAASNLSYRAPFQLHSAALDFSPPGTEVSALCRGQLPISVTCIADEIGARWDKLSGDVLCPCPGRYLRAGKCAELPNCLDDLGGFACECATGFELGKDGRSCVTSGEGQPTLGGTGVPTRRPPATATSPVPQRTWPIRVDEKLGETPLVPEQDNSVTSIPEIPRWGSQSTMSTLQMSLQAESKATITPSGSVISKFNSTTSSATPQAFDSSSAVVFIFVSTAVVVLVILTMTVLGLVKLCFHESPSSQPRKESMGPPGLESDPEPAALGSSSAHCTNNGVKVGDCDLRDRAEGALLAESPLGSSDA

T5: human CLEC14A, full length (human, UniProt Q86T13 22-490)
T5 construct: also called CLEC14A on HUVECs (endogenous); CHO cells expressing full length human CLEC14A
T5 sequence: T4 sequence

B1: CLEC14A with regions 97-108 of CD141 (receptor)
chain: not shown
notes: also called this mutant
B2: HA-CLEC14A (receptor)
chain: T4 sequence
notes: also called CLEC14A wild type (WT) with an N-terminal HA tag; not shown: N-terminal HA tag
B3: CRT1 (antibody, IgG1, V domains shown)
VH: EVQLQQSGAELMKPGASVKISCKATGYTFSSYWIEWVKQRPGHGLEWIGEILPGSGSTNYNEKFKGKATFTADTSSNTAYMQLSSLTSEDSAVYYCARGGDYDEEYYVMDYWGQGTSVTV
VL: QIVLTQSPAIMSASPGEKVTMTCSASSSVSYMYWYQQKPGSSPRLLIYDTSNLASGVPVRFSGSGSGTSYSLTISRMEAEDAATYYCQQWSSYPLTFGAGTKLELKR
notes: also called C1; CR1
B4: CRT4 (antibody, IgG1, V domains shown)
VH: QVQLQQSGAELMKPGASVKISCKATGYTFSSYWIEWVNRRPGHGLEWIGEILPGSGSTNYNEKFKGKATFTADTSSNTAYMQLSSLTSEDSAVYYCARGGDYDEEYYLMDYWGQGTTLTVSS
VL: B3 VL with L105I
notes: also called C4
B5: CRT5 (antibody, IgG1, V domains shown)
VH: AEVQLQQSGAELMKPGASVKISCKATGYTFSSYWIEWVNQRPGHGLEWIGEILPGSGSTNYNEKFKGKATFTADTSSNTAYMQLSSLTSEDSAVYYCARGGDYDEEYYAMDYWGQGTSVTL
VL: B3 VL with A82G
notes: also called C5
B6: CRT3 (antibody, IgG1, V domains shown)
VH: EVQLQQSGTVLARPGASVKMSCKASGYTFTSYWMHWVKQRPGQGLEWIGAIYPGNSDTSYNQKFKGKAKLTAVTSTSTAYMELSSLTNEDSAVFYCTHYYGSDYAMDYWGQGTSVTV
VL: QIVLTQSPAIMSASLGERVTMTCTASSSVSSSYLHWYQQKPGSSPKLWIYSTSNLASGVPARFSGSGSGTSYSLTISSMEAEDAATYYCHQYHRSPRTFGGGTKLEIKR
notes: The VL entry ends with AAA from the cloning site; also called C3

Experiments:
[1] = target: T1, MMRN2 overexpressed in HEK293T cells; test: method for MMRN2 not described
[2] = target: T1, MMRN2 overexpressed in HEK293T cells; test: far Western blot of lysates of transfected HEK293T cells, probed with MMRN2 protein lysate
From the text: HEK293T cells were mock transfected or transfected with pCS2 vectors containing CLEC14A wild type (WT) or constructs with each major domain deleted (Δ) with an N-terminal HA tag. Upon far western blotting with MMRN2 protein lysate, binding can be seen in all mutants except those missing the C-type lectin domain (CTLD) or the sushi domain. An anti-HA blot was included to show all mutant proteins were expressed.

[3] = target: B1; test: flow cytometry, HEK293T 97-108 Chimera GFP, GFP-positive cells gated (R1)
murine CLEC14A-Fc = target: T2, murine CLEC14A-Fc; test: ELISA, hybridoma supernatant on absorbed antigen
Chimera 5 = target: T6, Chimera 5; test: flow cytometry, HEK293T Chimera 5 GFP, GFP-positive cells gated (R1)
T6 construct: GFP fusion; also called CLEC14A with CTLD of CD141; CTLD of thrombomodulin, rest CLEC14A

[4] = target: T7, wild type thrombomodulin with GFP tag (UniProt P07204 19-575); test: flow cytometry, HEK293T Thrombomodulin CD141 WT GFP, GFP-positive cells gated (R1)
T7 construct: whole, on cells; Expressed in HEK293T cells; also called WT CD141; CD141; not shown: C-terminal GFP tag

Chimera 6 = target: T8, Chimera 6; test: flow cytometry, HEK293T Chimera 6 GFP, GFP-positive cells gated (R1); filled histogram is the control (files named IgG)
T8 construct: GFP fusion; also called CLEC14A with SUSHI of CD141; Sushi of thrombomodulin

human CLEC14A-ECD-Fc = target: T3, human CLEC14A-ECD-Fc; test: pre-incubation of CLEC14A-ECD-Fc with antibody before MMRN2 pull-down
Experimental: Human CLEC14A-ECD-Fc was bound to protein A beads, blocked in 20% FCS and then incubated with each blocking condition. This was then added to lysates of HEK293T cells overexpressing full-length human MMRN2 with a His tag. Pre-incubating with CRT1, CRT4 and CRT5 decreased the levels of MMRN2 pulled down by CLEC14A-ECD-Fc.
To determine which CLEC14A monoclonal antibodies could inhibit the binding of MMRN2 to CLEC14A, CLEC14A-ECD-Fc was pre-incubated with increasing concentrations of mIgG1, or CR1-5, prior to incubation with lysates from HEK293T cells overexpressing MMRN2. Precipitates were then separated and probed for MMRN2 or CLEC14A-ECD-Fc. […] This confirms that antibodies C1, 4 and 5 bind CLEC14a on an epitope that is distinct from the one that C2 and 3 monoclonal antibodies bind and thus specifically block the MMRN2 interaction with CLEC14A.

[5] = target: T4, CLEC14A wild type with a C terminal GFP …; test: flow cytometry, HEK293T CLEC14A WT GFP, GFP-positive cells gated (R1); filled histogram is the control (files named IgG)
[6] = target: T5, human CLEC14A, full length; test: fluorescent imaging of HUVECs treated with the drug conjugate of CRT3, 0 and 90 minutes by the legend
Experimental: HUVECs were treated with CRT-3 ADC and fluorescent imaging was carried out to determine the localisation of CRT-3 after 0 and 90 minutes. Further, the cytotoxicity was measured using a Cell Titre Glo luminescent cell viability assay and the results are shown in FIG. 18B. As described above, 1 million Lewis lung carcinoma cells were injected subcutaneously into the right flank of 2 mice and allowed to grow to a visible size. 1 mg/kg of CRT-3-ADC or B12-ADC (control) was administered through tail vein injections.

T7 sequence (P07204 19-575): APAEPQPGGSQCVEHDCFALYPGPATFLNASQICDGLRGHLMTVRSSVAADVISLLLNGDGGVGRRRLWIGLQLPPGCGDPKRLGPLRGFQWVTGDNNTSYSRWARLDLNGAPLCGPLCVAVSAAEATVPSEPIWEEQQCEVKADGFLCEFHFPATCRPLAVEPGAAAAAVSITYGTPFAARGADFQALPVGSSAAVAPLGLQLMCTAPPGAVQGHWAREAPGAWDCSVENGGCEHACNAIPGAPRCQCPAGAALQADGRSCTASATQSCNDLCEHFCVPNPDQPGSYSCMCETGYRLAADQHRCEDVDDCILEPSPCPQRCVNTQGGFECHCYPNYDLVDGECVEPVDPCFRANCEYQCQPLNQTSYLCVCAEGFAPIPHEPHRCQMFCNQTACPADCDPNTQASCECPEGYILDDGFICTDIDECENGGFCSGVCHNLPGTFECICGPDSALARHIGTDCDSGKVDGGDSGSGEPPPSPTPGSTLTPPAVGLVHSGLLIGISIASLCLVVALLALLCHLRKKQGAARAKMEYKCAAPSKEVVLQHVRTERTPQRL
T6 sequence (chain, as listed by the source mutant limits assumed): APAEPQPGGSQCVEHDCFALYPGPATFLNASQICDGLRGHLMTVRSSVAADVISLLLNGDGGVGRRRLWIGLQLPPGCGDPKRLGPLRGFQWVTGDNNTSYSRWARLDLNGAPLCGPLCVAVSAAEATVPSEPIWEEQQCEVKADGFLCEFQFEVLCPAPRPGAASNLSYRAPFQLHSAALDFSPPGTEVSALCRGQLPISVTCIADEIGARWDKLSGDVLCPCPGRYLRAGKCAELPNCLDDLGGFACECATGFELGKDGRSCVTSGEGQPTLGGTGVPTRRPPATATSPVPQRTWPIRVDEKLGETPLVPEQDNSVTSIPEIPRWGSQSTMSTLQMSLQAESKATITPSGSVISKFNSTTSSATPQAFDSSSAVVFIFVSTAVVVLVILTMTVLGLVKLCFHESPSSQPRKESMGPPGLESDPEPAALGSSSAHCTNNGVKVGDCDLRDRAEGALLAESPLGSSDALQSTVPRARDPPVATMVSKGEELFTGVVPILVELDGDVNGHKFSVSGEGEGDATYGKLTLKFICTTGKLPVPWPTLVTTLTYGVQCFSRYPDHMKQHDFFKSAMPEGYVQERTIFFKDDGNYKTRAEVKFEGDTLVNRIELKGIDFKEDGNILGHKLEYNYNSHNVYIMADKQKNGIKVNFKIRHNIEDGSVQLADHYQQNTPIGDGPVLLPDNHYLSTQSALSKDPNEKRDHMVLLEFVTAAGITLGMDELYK

| binding result [1] | binding result [2] | binding result [3] | binding result (murine CLEC14A-Fc) | binding result (Chimera 5) | binding result [4] | binding result (Chimera 6) | binding result (human CLEC14A-ECD-Fc) | binding result [5] | binding result [6] | Binder |
| --- | --- | --- | --- | --- | --- | --- | --- | --- | --- | --- |
| no binding | – | – | – | – | – | – | – | – | – | B1 |
| – | binds | – | – | – | – | – | – | – | – | B2 |
| – | – | no binding | binds | no binding | no binding | binds | binds | binds | – | B3 |
| – | – | no binding | – | no binding | no binding | – | – | – | – | B4 |
| – | – | no binding | – | no binding | no binding | – | – | – | – | B5 |
| – | – | – | binds | no binding | no binding | binds | binds | binds | binds | B6 |
